{"source": "paper PMC2808246", "about": "“Mycobacterial Nucleoside Diphosphate Kinase Blocks Phagosome Maturation in Murine Raw 264.7 Macrophages” (PLoS ONE, 2010)", "binders": {"B1": {"name": "Mycobacterium smegmatis nucleoside diphosphate kinase (Ndk), recombinant (enzyme)", "chain": "MTERTLVLIKPDGVKRQLVGEILSRIERKGLTLAALELKNVSDDLARQHYAEHADKPFFGSLLEFITSGPLVAAIVEGPRAVAAFRQIAGGTDPVEKAVPGTIRGDFALITQDNLVHGSDSPESAAREIALWFPGEATA"}, "B2": {"name": "Mycobacterium tuberculosis nucleoside diphosphate kinase (Ndk), recombinant (enzyme)", "chain": "MTERTLVLIKPDGIERQLIGEIISRIERKGLTIAALQLRTVSAELASQHYAEHEGKPFFGSLLEFITSGPVVAAIVEGTRAIAAVRQLAGGTDPVQAAAPGTIRGDFALETQFNLVHGSDSAESAQREIALWFPGA"}}, "key": {"[1]": {"molecular_target": "T1, Rab5a GTPase, recombinant, GTP-loaded (UniProt P20339 1-215)", "T1 sequence": "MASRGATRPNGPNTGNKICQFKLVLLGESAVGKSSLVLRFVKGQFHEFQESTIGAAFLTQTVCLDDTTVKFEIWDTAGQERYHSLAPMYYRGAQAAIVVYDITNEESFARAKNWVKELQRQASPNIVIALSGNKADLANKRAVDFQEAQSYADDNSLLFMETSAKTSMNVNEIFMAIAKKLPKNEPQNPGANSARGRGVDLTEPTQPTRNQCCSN", "assay": "cell-based or functional assay"}, "[2]": {"molecular_target": "Rab7 GTPase, recombinant, GTP-loaded (UniProt P51149 1-207)", "sequence (P51149 whole entry)": "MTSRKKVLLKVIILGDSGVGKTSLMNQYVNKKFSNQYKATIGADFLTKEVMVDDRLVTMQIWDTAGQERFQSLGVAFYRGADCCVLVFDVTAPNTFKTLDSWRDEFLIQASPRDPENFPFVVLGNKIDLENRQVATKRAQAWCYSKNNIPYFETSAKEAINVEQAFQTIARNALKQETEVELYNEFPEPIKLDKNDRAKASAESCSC", "assay": "cell-based or functional assay"}}, "data": [{"binder": "B1", "values": [{"measurement": "GAP activity: reduction of [γ-32P]GTP bound to Rab5 spotted on nitrocellulose, after 2 h with 10 µg/ml Ndk, relative to untreated", "setting": "[1]", "result": 35, "unit": "%"}]}, {"binder": "B2", "values": [{"measurement": "GAP activity: depletion of the gamma phosphate of [γ-32P]GTP bound to Rab7 spotted on nitrocellulose, after 2 h with 10 µg/ml Ndk, relative to untreated", "setting": "[2]", "result": 90, "unit": "%"}, {"measurement": "GAP activity: depletion of the gamma phosphate of [γ-32P]GTP bound to Rab5 spotted on nitrocellulose, after 2 h with 10 µg/ml Ndk, relative to untreated", "setting": "[1]", "result": 95, "unit": "%"}]}]}
